Assay results published in article PMC5074368.

Columns and labels:
[1] = molecular target: NDP52 in the prey vector pVP16 (UniProt Q13137); test: mammalian two-hybrid assay; conditions: parent: est. 100, read off a plot
[2] = molecular target: GIPC in the prey vector pVP16 (UniProt O14908); test: mammalian two-hybrid assay; conditions: parent: est. 100, read off a plot
[3] = molecular target: LMTK2 in the prey vector pVP16 (UniProt Q8IWU2); test: mammalian two-hybrid assay; conditions: n = 4; parent: est. 100; read off a plot
[4] = molecular target: TOM1 in the prey vector pVP16 (UniProt O60784); test: mammalian two-hybrid assay; conditions: parent: est. 100, read off a plot
[5] = molecular target: optineurin in the prey vector pVP16 (UniProt Q96CV9); test: mammalian two-hybrid assay; conditions: n = 4; parent: est. 100; read off a plot
[6] = molecular target: Dab2 in the prey vector pVP16 (UniProt P98082); test: mammalian two-hybrid assay; conditions: parent: est. 100, read off a plot
[7] = molecular target: F-actin (cellular actin filaments of RPE cells) (human (endogenous in RPE cells)) (UniProt P60709); test: co-sedimentation; actin pelleting assay: homogenate of RPE cells expressing GFP-myosin VI constructs in F-actin stabilisation buffer (50 mM PIPES pH 6.9, 50 mM NaCl, mild detergents), 100 000 x g, 1 h, 37°C; quantitative immunoblotting, pellet/supernatant normalised to endogenous myosin VI; the pellet also holds cellular membranes
[8] = molecular target: F-actin (cellular actin filaments of RPE cells), P60709; test: cell fractionation into supernatant and F-actin-enriched pellet, quantitative immunoblotting; conditions: chain shown with the change, n = 3, parent: est. 1.3, read off a plot

Myosin VI globular tail (amino acids 1036–1294), wild type, in the bait vector pM R1108A
percent of parent (% wildtype control) ([1]; n = 3): 16 | percent of parent (% wildtype control) ([2]; n = 3): 2

Myosin VI globular tail (amino acids 1036–1294), wild type, in the bait vector pM L1109A
percent of parent (% wildtype control) ([1]; n = 3): 100 | percent of parent (% wildtype control) ([2]; n = 3): 32

Myosin VI globular tail (amino acids 1036–1294), wild type, in the bait vector pM W1253A
percent of parent (% wildtype control) ([1]; n = 4): 71 | percent of parent (% wildtype control) [3]: 0 | percent of parent (% wildtype control) ([4]; n = 3): 2 | percent of parent (% wildtype control) ([4]; n = 4): 2 | percent of parent (% wildtype control) [5]: 120 | percent of parent (% wildtype control) ([2]; n = 4): 59 | percent of parent (% wildtype control) ([6]; n = 4): 1 | percent of parent (% wildtype control) ([6]; n = 5): 1

GFP-tagged full-length myosin VI-NI RRL–AAA (from UniProt Q9UM54-1 1-1285) (natural protein)
fold increase of the pellet/supernatant ratio against WT myosin VI [7]: > 5 fold

Myosin VI globular tail (amino acids 1036–1294), wild type, in the bait vector pM R1107A
percent of parent (% wildtype control) ([1]; n = 3): 76 | percent of parent (% wildtype control) ([2]; n = 3): 69

GFP-tagged full-length myosin VI-NI WWY–WLY (from UniProt Q9UM54-1 1-1285) (natural protein)
fold increase of the pellet/supernatant ratio against WT myosin VI [7]: 3 fold

B1: GFP-tagged full-length myosin VI-NI, wild type, Q9UM54-1 E1251A (protein)
chain: MEDGKPVWAPHPTDGFQMGNIVDIGPDSLTIEPLNQKGKTFLALINQVFPAEEDSKKDVEDNCSLMYLNEATLLHNIKVRYSKDRIYTYVANILIAVNPYFDIPKIYSSEAIKSYQGKSLGTRPPHVFAIADKAFRDMKVLKMSQSIIVSGESGAGKTENTKFVLRYLTESYGTGQDIDDRIVEANPLLEAFGNAKTVRNNNSSRFGKFVEIHFNEKSSVVGGFVSHYLLEKSRICVQGKEERNYHIFYRLCAGASEDIREKLHLSSPDNFRYLNRGCTRYFANKETDKQILQNRKSPEYLKAGSMKDPLLDDHGDFIRMCTAMKKIGLDDEEKLDLFRVVAGVLHLGNIDFEEAGSTSGGCNLKNKSAQSLEYCAELLGLDQDDLRVSLTTRVMLTTAGGTKGTVIKVPLKVEQANNARDALAKTVYSHLFDHVVNRVNQCFPFETSSYFIGVLDIAGFEYFEHNSFEQFCINYCNEKLQQFFNERILKEEQELYQKEGLGVNEVHYVDNQDCIDLIEAKLVGILDILDEENRLPQPSDQHFTSAVHQKHKDHFRLTIPRKSKLAVHRNIRDDEGFIIRHFAGAVCYETTQFVEKNNDALHMSLESLICESRDKFIRELFESSTNNNKDTKQKAGKLSFISVGNKFKTQLNLLLDKLRSTGASFIRCIKPNLKMTSHHFEGAQILSQLQCSGMVSVLDLMQGGYPSRASFHELYNMYKKYMPDKLARLDPRLFCKALFKALGLNENDYKFGLTKVFFRPGKFAEFDQIMKSDPDHLAELVKRVNHWLTCSRWKKVQWCSLSVIKLKNKIKYRAEACIKMQKTIRMWLCKRRHKPRIDGLVKVGTLKKRLDKFNEVVSVLKDGKPEMNKQIKNLEISIDTLMAKIKSTMMTQEQIQKEYDALVKSSEELLSALQKKKQQEEEAERLRRIQEEMEKERKRREEDEKRRRKEEEERRMKLEMEAKRKQEEEERKKREDDEKRIQAEVEAQLARQKEEESQQQAVLEQERRDRELALRIAQSEAELISDEAQADLALRRNDGTRPKMTPEQMAKEMSEFLSRGPAVLATKAAAGTKKYDLSKWKYAELRDTINTSCDIELLAACREEFHRRLKVYHAWKSKNKKRNTETEQRAPKSVTDYDFAPFLNNSPQQNPAAQIPARQREIEMNRQQRFFRIPFIRPADQYKDPQSKKKGWWYAHFDGPWIARQMELHPDKPPILLVAGKDDMEMCELNLEETGLTRKRGAEILPRQFEAIWERCGGIQYLQNAIESRQARPTYATAMLQSLLK
other: pellet:supernatant (P:S) ratio [8]: 1.2
